Experimental findings from article PMC7971322, “Insights into the mechanism regulating the differential expression of the P28-OMP outer membrane proteins in obligatory intracellular pathogen Ehrlichia chaffeensis” are described below.

Changes are numbered by the printed parent chain.

Data set [1] has as its target T1, rTr1 (Ehrlichia chaffeensis) (UniProt Q2GF81).
T1 sequence: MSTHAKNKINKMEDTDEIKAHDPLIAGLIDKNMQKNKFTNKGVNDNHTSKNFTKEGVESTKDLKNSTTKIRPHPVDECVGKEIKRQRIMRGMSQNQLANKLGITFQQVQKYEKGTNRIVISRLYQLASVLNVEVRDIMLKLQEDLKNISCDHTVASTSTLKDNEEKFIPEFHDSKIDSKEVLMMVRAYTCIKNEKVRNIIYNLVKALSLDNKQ
In words: DNase I footprinting. The following applies: EMSA/footprint: 10 mM Tris-HCl pH 7.5, 100 mM NaCl, 1 mM DTT, 10% glycerol, 25 C, SPR: 10 mM Tris-HCl pH 7.5, 100 mM NaCl, 0.05% Tween 20, 25 C.

Data set [2] deals with T2, rEcxR (Ehrlichia chaffeensis) (UniProt Q2GG40).
T2 sequence: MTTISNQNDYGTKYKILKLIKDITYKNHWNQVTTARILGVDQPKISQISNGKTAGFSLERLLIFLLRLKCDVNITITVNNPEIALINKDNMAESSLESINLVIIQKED
Nature of the data set: EMSA. The conditions noted are these: EMSA/footprint: 10 mM Tris-HCl pH 7.5, 100 mM NaCl, 1 mM DTT, 10% glycerol, 25 C, SPR: 10 mM Tris-HCl pH 7.5, 100 mM NaCl, 0.05% Tween 20, 25 C.

In data set [3] the target is T1, rTr1 (Ehrlichia chaffeensis). Nature of the data set: EMSA. The conditions noted are these: EMSA/footprint: 10 mM Tris-HCl pH 7.5, 100 mM NaCl, 1 mM DTT, 10% glycerol, 25 C, SPR: 10 mM Tris-HCl pH 7.5, 100 mM NaCl, 0.05% Tween 20, 25 C.
Data set [4] has as its target T3, rTr1 (Ehrlichia chaffeensis, UniProt Q2GF81 1-213).
T3 sequence: T1 sequence
Nature of the data set: SPR; EMSA/footprint: 10 mM Tris-HCl pH 7.5, 100 mM NaCl, 1 mM DTT, 10% glycerol, 25 C; SPR: 10 mM Tris-HCl pH 7.5, 100 mM NaCl, 1 mM DTT, 0.05% Tween 20, 25 C. The following applies: protein: recombinant, tags: N-terminal His (pET-33b), chain copies: 2.

For the next data set, the target named is T4, rEcxR (Ehrlichia chaffeensis, UniProt Q2GG40 1-108).
T4 sequence: T2 sequence
The data set is described as above. The conditions noted are these: protein: recombinant, tags: C-terminal His (pET-29a), chain copies: 2, none in plain EMSA.

Data set [5] addresses T3, rTr1. In words: competition; 50-fold unlabelled vs biotinylated region II, 1 uM rTr1; EMSA/footprint: 10 mM Tris-HCl pH 7.5, 100 mM NaCl, 1 mM DTT, 10% glycerol, 25 C; SPR: 10 mM Tris-HCl pH 7.5, 100 mM NaCl, 1 mM DTT, 0.05% Tween 20, 25 C. The following applies: protein: recombinant; tags: N-terminal His (pET-33b); chain copies: 2; blunt.
For data set [6], the target named is T3, rTr1. In words: EMSA; 1.8 uM rTr1; EMSA/footprint: 10 mM Tris-HCl pH 7.5, 100 mM NaCl, 1 mM DTT, 10% glycerol, 25 C; SPR: 10 mM Tris-HCl pH 7.5, 100 mM NaCl, 1 mM DTT, 0.05% Tween 20, 25 C. The following applies: protein: recombinant; tags: N-terminal His (pET-33b); chain copies: 2; blunt.
The target in data set [7] is T3, rTr1. In words: competition; 50-fold unlabelled vs biotinylated region I, 1 uM rTr1; EMSA/footprint: 10 mM Tris-HCl pH 7.5, 100 mM NaCl, 1 mM DTT, 10% glycerol, 25 C; SPR: 10 mM Tris-HCl pH 7.5, 100 mM NaCl, 1 mM DTT, 0.05% Tween 20, 25 C. The conditions noted are these: protein: recombinant; tags: N-terminal His (pET-33b); chain copies: 2; blunt.

In the case of “ATGATATCAATGCACTTGTTATGAAAACTTTTTTGTAATTCATATATAACCTAATAGTGACAAATAAATTAACAATAGTAGAAGTGTCATATAAAAGCAAGTCAGAATATAAATTTTTGTATAAAATATCGGTAACTTTTGTAAGGAAAATTTAATATATTACGTCAGGTAAGTAATAGCAAAAAAACTGGTTAAGTATAGTATCATGTGTAAAGGTGAGAAAAACAGCACTTATA (double strand) [p28 promoter footprint fragment]”, the binding entry in data set [1] is “binds”.

As to “GTGATAGGGAATGAATTCAGAGATATTCCTGCTATGATACCCAGTACCTCAACTCTCACAGGTAATCACTTTACTATAGTAACACTAAGTGTATGCCACTTTGGAGTGGAACTTGGAGGAAGGTTTAACTTTTAATTTTATTATTGCCACATGTTAAAAATAATCTAAACTTGTTTTTATTATTGCTGCAGGTAAATAAAAATAGTGGCAAAAGAATGTAGCAATAAGAGGGGGGGGGGGGGGACTAGTTTATAAGTGCTGTTTTTCTCACCTTTA (double strand) [p28 II footprint fragment]”, the binding result in data set [1] was “binds”.

Regarding “CCTATAACAAAGCAACCTATGTAAGATAAATCATGCATAAAGTGAATGCAATAGTTATTTAATGGATATATTCTATCTAGTTTGCTGGAATAGTATACTAATTATATAATATACAGAAATAACATATTATGCTTTATGAAATATAAGATAAAATTTATTTACTTTTTAGCTTGATTGGATCAATAATTTATATTAAACATGAAAGTCAGTTTGTCCGGGT (double strand) [tr1 promoter footprint fragment]”, in data set [1], the binding result is reported as “binds”.

With “GAATTTGTGATTTGAAATAACAAGACTTAAATGTCGAATTTAGCTTCTGTCCTAGTGGATAAGTACTTTAGCAAGTGGTAAAAGCAAGTCTACTCATATTTTTATTAATTAAGTAGTAAAGTTAACTATAGATTTTATTAAAATTTTTATTCTAATCACTTTAAATATCAATTACTTTTGTTGTAAATTTGAAAGAAATTTTATATTCTAGACTTGCTTTTCTTTATTTCTTTCATTATTCTTAAATTTTTATTATCTTTTATAAAAGGTTTATTAAC (double strand) [omp-1B promoter EMSA probe]”, the binding result in data set [2] and in data set [3] was “binds” each time.

Take “CCTATAACAAAGCAACCTATGTAAGATAAATCATGCATAAAGTGAATGCAATAGTTATTTAATGGATATATTCTATCTAGTTTGCTGGAATAGTATACTAATTATATAATATACAGAAATAACATATTATGCTTTATGAAATATAAGATAAAATTTATTTACTTTTTAGCTTGATTGGATCAATAATTTATATTAAACATGAAAGTCAGTTTGTCCGGGT (double strand) [tr1 promoter EMSA probe]”: the binding entry in data set [2] and in data set [3] was “binds” in each case.

“GAATTTGTGATTTGAAATAACAAGACTTAAATGTCGAATTTAGCTTCTGTCCTAGTGGATAAGTACTTTAGCAAGTGGTAAAAGCAAGTCTACTCATATTTTTATTAATTAAGTAGTAAAGTTAACTATAGATTTTATTAAAATTTTTATTCTAATCACTTTAAATATCAATTACTTTTGTTGTAAATTTGAAAGAAATTTTATATTCTAGACTTGCTTTTCTTTATTTCTTTCATTATTCTTAAATTTTTATTATCTTTTATAAAAGGTTTATTAAC (double strand) [omp-1B promoter footprint fragment]”: in data set [1], the binding result is reported as “binds”.

B1: Tr1 protected region II (omp-1B promoter) (dsDNA)
DNA 1: AGTAAAGTTAACTATAGATTTTATTAAAATTTTTATTCTAATCACTTTAA
DNA 2: TTAAAGTGATTAGAATAAAAATTTTAATAAAATCTATAGTTAACTTTACT
For B1, the dissociation constant Kd in the data set with rTr1 [4] (none in plain EMSA, blunt) turned out to be 15.5 nM. Moreover, in the data set with rEcxR (blunt), the binding result is listed as “no binding”.

B2: Tr1 protected region II, mutated motif (dsDNA)
DNA 1: B1 DNA 1 with A11G, C12G, T13G, A14G, T15G, A16G
DNA 2: B1 DNA 2 with T35C, A36C, T37C, A38C, G39C, T40C
On to B2, for which, in the data set with rTr1 [5], the binding result was “no binding”.

B3: Tr1 protected region IV (upstream of p28) (dsDNA)
DNA 1: TAATCACTTTACTATAGTAACACTAAGTGTATGCCACTTTGGAGTGGAAC
DNA 2: GTTCCACTCCAAAGTGGCATACACTTAGTGTTACTATAGTAAAGTGATTA
B3: in the data set with rTr1 [4] (label: biotin for SPR (note on S35), blunt), the Kd stood at 14 nM.

B4: Tr1 protected region III (tr1 promoter) (dsDNA)
DNA 1: TAAAGCATAATATGTTATTTCTGTATATTATATAAT
DNA 2: ATTATATAATATACAGAAATAACATATTATGCTTTA
As to B4, the binding result with rTr1 [6] was “binds”.

B5: Tr1 protected region I (p28 promoter) (dsDNA)
DNA 1: TACACATGATACTATACTTAACCAGTTTTTTTGCTATTACTTACCTGACG
DNA 2: CGTCAGGTAAGTAATAGCAAAAAAACTGGTTAAGTATAGTATCATGT
B5: the equilibrium dissociation constant (Kd) in the data set with rTr1 [4] (none in plain EMSA, 5' overhang 3 nt on strand 1 (reverse oligo as printed is 47 nt)) was determined as 2.52 nM. The binding result with rEcxR (5' overhang 3 nt on strand 1 (reverse oligo as printed is 47 nt)) was “no binding”.

B6: Tr1 protected region I, mutated motif (dsDNA)
DNA 1: B5 DNA 1 with A11G, C12G, T13G, A14G, T15G, A16G
DNA 2: CGTCAGGTAAGTAATAGCAAAAAAACTGGTTAAGCCCCCCATCATGTGTA
As to B6, the binding result with rTr1 [7] was “no binding”.
